Assay results reported in patent publication US20210171647A1 (WUXI BIOLOGICS SHANGHAI, published 2021).

What was measured:
Experiment in all cases: ELISA, antibody coated, OX40-ECD.His mutant supernatant; relative to silent alanine substitutions;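 note: captured OX40 mutant protein detected with HRP-labelled anti-His antibody, absorbance read-out, scaled to the mean signal of control mutants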
human OX40-ECD.His L116A = target: T1, human OX40-ECD.His L116A (human, UniProt P43489 29-214)
T1 construct: extracellular domain; not shown: C-terminal His-tag
T1 sequence (looked up): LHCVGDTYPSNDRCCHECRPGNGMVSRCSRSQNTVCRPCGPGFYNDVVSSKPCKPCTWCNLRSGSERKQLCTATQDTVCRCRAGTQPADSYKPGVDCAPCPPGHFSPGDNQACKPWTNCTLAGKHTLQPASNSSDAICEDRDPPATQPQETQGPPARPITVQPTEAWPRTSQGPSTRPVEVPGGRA

human OX40-ECD.His R55A = target: T2, human OX40-ECD.His R55A (human, UniProt P43489 29-214)
T2 construct: extracellular domain; not shown: C-terminal His-tag
T2 sequence (looked up): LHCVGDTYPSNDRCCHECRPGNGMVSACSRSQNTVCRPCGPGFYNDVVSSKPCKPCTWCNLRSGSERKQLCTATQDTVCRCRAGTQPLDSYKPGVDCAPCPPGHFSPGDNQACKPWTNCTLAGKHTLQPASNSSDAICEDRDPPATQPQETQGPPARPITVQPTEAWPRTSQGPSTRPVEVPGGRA

human OX40-ECD.His H132A = target: T3, human OX40-ECD.His H132A (human, UniProt P43489 29-214)
T3 construct: extracellular domain; not shown: C-terminal His-tag
T3 sequence (looked up): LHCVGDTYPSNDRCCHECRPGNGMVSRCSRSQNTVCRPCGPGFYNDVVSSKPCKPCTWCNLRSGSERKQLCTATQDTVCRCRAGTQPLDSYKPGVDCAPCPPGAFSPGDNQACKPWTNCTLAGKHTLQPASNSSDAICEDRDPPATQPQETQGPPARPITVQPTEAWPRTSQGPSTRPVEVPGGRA

human OX40-ECD.His N50A = target: T4, human OX40-ECD.His N50A (human, UniProt P43489 29-214)
T4 construct: extracellular domain; not shown: C-terminal His-tag
T4 sequence (looked up): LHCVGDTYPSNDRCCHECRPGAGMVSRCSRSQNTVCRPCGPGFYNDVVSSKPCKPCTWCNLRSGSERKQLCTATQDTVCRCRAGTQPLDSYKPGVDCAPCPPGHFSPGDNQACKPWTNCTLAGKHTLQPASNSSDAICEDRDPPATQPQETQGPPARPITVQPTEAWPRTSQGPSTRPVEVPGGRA

human OX40-ECD.His L155A = target: T5, human OX40-ECD.His L155A (human, UniProt P43489 29-214)
T5 construct: extracellular domain; not shown: C-terminal His-tag
T5 sequence (looked up): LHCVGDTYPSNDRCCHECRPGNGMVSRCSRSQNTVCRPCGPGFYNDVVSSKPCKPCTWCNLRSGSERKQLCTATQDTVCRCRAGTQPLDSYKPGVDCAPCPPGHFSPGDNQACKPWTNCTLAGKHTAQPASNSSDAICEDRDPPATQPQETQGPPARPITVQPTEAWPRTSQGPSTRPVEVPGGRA

human OX40-ECD.His H44A = target: T6, human OX40-ECD.His H44A (human, UniProt P43489 29-214)
T6 construct: extracellular domain; not shown: C-terminal His-tag
T6 sequence (looked up): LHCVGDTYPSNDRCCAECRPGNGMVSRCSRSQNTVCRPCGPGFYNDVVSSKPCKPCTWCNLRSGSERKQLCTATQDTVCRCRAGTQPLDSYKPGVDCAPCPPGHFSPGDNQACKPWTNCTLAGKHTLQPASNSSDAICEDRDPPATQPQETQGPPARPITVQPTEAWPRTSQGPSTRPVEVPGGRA

human OX40-ECD.His V106A = target: T7, human OX40-ECD.His V106A (human, UniProt P43489 29-214)
T7 construct: extracellular domain; not shown: C-terminal His-tag
T7 sequence (looked up): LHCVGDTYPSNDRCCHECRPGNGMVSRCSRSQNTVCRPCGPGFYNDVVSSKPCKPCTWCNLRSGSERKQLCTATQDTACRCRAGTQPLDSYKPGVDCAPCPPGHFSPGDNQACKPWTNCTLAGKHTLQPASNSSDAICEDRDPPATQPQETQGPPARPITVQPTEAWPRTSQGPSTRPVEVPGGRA

human OX40-ECD.His T102A = target: T8, human OX40-ECD.His T102A (human, UniProt P43489 29-214)
T8 construct: extracellular domain; not shown: C-terminal His-tag
T8 sequence (looked up): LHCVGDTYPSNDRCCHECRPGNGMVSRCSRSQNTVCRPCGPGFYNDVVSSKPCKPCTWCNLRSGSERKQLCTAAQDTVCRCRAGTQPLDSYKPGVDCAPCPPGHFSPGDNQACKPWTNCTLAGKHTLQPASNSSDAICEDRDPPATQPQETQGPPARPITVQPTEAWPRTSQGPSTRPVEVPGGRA

human OX40-ECD.His D117A = target: T9, human OX40-ECD.His D117A (human, UniProt P43489 29-214)
T9 construct: extracellular domain; not shown: C-terminal His-tag
T9 sequence (looked up): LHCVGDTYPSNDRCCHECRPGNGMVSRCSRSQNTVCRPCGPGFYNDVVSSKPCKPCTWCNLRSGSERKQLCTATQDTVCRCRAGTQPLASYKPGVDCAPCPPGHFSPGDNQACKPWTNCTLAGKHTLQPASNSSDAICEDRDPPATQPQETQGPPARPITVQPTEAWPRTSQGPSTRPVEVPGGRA

human OX40-ECD.His P121A = target: T10, human OX40-ECD.His P121A (human, UniProt P43489 29-214)
T10 construct: extracellular domain; not shown: C-terminal His-tag
T10 sequence (looked up): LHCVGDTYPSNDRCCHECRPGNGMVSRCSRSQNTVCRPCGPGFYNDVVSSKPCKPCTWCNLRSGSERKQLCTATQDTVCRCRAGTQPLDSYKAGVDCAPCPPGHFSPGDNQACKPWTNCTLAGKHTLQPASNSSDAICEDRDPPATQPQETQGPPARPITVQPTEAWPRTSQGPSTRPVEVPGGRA

B1: 1.134.9-u1-IgG1L (antibody, V domains shown)
VH: QVQLQESGPGLVKPSGTLSLTCAVSGGSISSYNWWSWVRQPPGKGLEWIGEIYHGGNTNYNPSLKSRVTMSVDNSKNQFSLKLSSVTAADTAVYYCARAPGDWGGSPYFDFWGQGTLVTVSS
VL: SSELTQDPAVSVALGQTVRITCQGDNLRTYYASWYQQKPGQAPILLIYGRNKRPSGIPDRFSGSSSGNTASLTITGAQAEDEAAYYCNSRDSSGNPVVFGGGTKLTVL
notes: fully human IgG1, lambda
Human OX40-ECD.His L116A
  Fold Change: 0.982
Human OX40-ECD.His R55A
  Fold Change: 0.976
Human OX40-ECD.His H132A
  Fold Change: 0.826
Human OX40-ECD.His N50A
  Fold Change: 0.961
Human OX40-ECD.His L155A
  Fold Change: 0.959
Human OX40-ECD.His H44A
  Fold Change: 1
Human OX40-ECD.His V106A
  Fold Change: 0.662
Human OX40-ECD.His T102A
  Fold Change: 0.94
Human OX40-ECD.His D117A
  Fold Change: 0.951
Human OX40-ECD.His P121A
  Fold Change: 0.974
